Among the data in US11279770 are MFI and MCF-7 IC50 (pM), HRG dependent proliferation values, retold here.

Test [1] addresses human ErbB-2 (HER2) (human) (UniProt P04626). In words: FACS on stable K562-HER2 cells; negative control.
Test [2] has the same target. Description: cell-based or functional assay.

Anti-RSV mAb (antibody): in test [1], the MFI came to 276 MFI.

trastuzumab + pertuzumab (1:1) had an MCF-7 IC50 (pM), HRG dependent proliferation in test [2] of 352 pM.
